Target: T1, MORF9 (UniProt Q9LPZ1 75-196, C85S;C187S)
T1 sequence: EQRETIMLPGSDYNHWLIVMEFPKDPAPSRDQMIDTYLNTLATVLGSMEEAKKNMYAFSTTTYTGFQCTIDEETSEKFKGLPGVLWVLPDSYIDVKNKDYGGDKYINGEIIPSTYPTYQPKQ
Test: EMSA; MORF9 alone, up to highest concentration; REMSA: 1 nM RNA, 2x buffer is 85 mM Tris, 165 mM HEPES, 200 mM NaCl, 12.5 mM DTT, 0.25 mM EDTA, 1.25 mg/mL heparin, 0.1 mg/mL BSA; 30 min at ambient temperature; 5% polyacrylamide gel; pH not stated
Settings: protein: recombinant; tags: N-terminal His-TEV tag cleaved off; label: 5'-Cy5; single strand

CAGCAACAGAAGCCCAAGCUCAUGGA (ssRNA) [clpP1_REMSA (clpP1-69942)]: no binding.

AUGUAUUACACGUGCAAAAUCUGAGA (ssRNA) [rpoA_REMSA (rpoA-78691)]: no binding.

Reference: paper PMC8110955, “A synthetic RNA editing factor edits its target site in chloroplasts and bacteria”
